Ends that are not written are not given here.
Molecular target: T1, A1PI (Homo sapiens, UniProt P01009)
T1 construct: Human plasma is currently the only approved source of therapeutic AlPI
Experiment: A1PI binding on peptide-resin column, injection of 1 mg A1PI in equilibration buffer
Details: for % of Total A1PI Eluted by Fraction (Based on Absorbance at 280 nm), 1M NaCl / % of Total A1PI Eluted by Fraction (Based on Absorbance at 280 nm), 2% Acetic Acid / % of Total A1PI Eluted by Fraction (Based on Absorbance at 280 nm), Flowthrough: 1 mg A1PI; for Percent A1PI Eluted by Fraction Based on Absorbance at 280 nm, 1M NaCl / Percent A1PI Eluted by Fraction Based on Absorbance at 280 nm, 2% Acetic Acid / Percent A1PI Eluted by Fraction Based on Absorbance at 280 nm, Flowthrough / Percent A1PI Eluted by Fraction, 1M NaCl / Percent A1PI Eluted by Fraction, 2% Acetic Acid / Percent A1PI Eluted by Fraction, Flowthrough: 1 mg A1PI in equilibration buffer
Protocol: Confirmatory binding assays were performed in a column chromatographic format on a microbore HPLC using individual peptide sequences synthesized directly onto the Toyopearl 650 M Chelate resin which had been modified with Totda followed by an alanine residue (A-Totda-Toyopearl), at a final substitution density of 0.1 mmole/g resin. The resin was packed into 0.4×5 cm columns (Thomson, Springfield, Va.) and tested on the Michrom HPLC system (Michrom BioResources, Auburn, Calif.). The elution program for all trials utilized the following method. The column was pre-equilibrated with equilibration buffer (as above). 1 ml of sample was injected and allowed sufficient time to flowthrough the column using equilibration buffer. The column was then washed with step elutions of 1M NaCl and 3M NaCl in equilibration buffer. The column was exposed to equilibration buffer with 0.1M NaCl. Any remaining protein was eluted with elution buffer (2% by volume glacial acetic acid in water).
A Gilson FC204 fraction collector at the HPLC outlet collected individual eluates for further analysis. Fractions collected from the 2% acetic acid eluates were neutralized with 2M Tris, pH 10.5 to bring the pH to neutrality. The protein samples were reconstituted in equilibration buffer unless otherwise stated. The samples were analyzed by the integration of the absorbance at 280 nm or by immunonephelometry. The specific method of determination is presented for each figure.
Tables 2 and 3 present the elution profiles for 19 sequences based on the injection of 1 mg AlPI in equilibration buffer at 4° C. and 20° C., respectively. The columns were run at a constant flow rate of865 μl/min (413 cm/hr) or 523 μl/min (250 cm/hr). No dependence of the elution profile with flow rate was found. The Percent AlPI Eluted by Fraction represents the amount eluted in the flowthrough, 1M NaCl wash, and 2% acetic acid fractions relative to the total AlPI eluted. The percentages are based on either the integration of the peak areas at […]

[1] = VIWLVR N-terminal point mutations, 4° C.

T1 sequence (P01009 25-418): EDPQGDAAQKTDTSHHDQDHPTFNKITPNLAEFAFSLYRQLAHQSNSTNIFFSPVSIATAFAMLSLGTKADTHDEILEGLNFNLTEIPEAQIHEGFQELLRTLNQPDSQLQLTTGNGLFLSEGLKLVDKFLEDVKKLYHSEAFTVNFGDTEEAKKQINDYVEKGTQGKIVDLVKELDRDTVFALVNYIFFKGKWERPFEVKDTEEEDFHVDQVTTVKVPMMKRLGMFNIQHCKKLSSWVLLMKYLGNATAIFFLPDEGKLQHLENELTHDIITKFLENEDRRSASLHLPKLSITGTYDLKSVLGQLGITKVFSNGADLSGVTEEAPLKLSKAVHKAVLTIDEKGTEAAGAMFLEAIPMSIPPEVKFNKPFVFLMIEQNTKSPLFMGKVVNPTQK

| % of Total A1PI Eluted by Fraction (Based on Absorbance at 280 nm), 1M NaCl [1] [%] | % of Total A1PI Eluted by Fraction (Based on Absorbance at 280 nm), 2% Acetic Acid [1] [%] | % of Total A1PI Eluted by Fraction (Based on Absorbance at 280 nm), Flowthrough [1] [%] | Substance | further results |
| --- | --- | --- | --- | --- |
| 0 | 0 | 100 | NDWLVR: point mutation of VIWLVR on Ala-Totda-Toyopearl (not fully specified (C-terminus)) | – |
| 83 | 17 | 0 | NHWLVR: point mutation of VIWLVR on Ala-Totda-Toyopearl (not fully specified (C-terminus)) | – |
| 94 | 6 | 0 | SSWLVR: point mutation of VIWLVR on Ala-Totda-Toyopearl (not fully specified (C-terminus)) | – |

Continued, substance first:

| Substance | % of Total A1PI Eluted by Fraction (Based on Absorbance at 280 nm), 1M NaCl [1] [%] | % of Total A1PI Eluted by Fraction (Based on Absorbance at 280 nm), 2% Acetic Acid [1] [%] | % of Total A1PI Eluted by Fraction (Based on Absorbance at 280 nm), Flowthrough [1] [%] | further results |
| --- | --- | --- | --- | --- |
| N I F L V R: point mutation of VIFLVR, position 1 (NIFLVR) | – | – | – | % of Total A1PI Eluted by Fraction (Based on Absorbance at 280 nm), 1M NaCl (VIFLVR point mutations, 4° C.): 25%; % of Total A1PI Eluted by Fraction (Based on Absorbance at 280 nm), 2% Acetic Acid (VIFLVR point mutations, 4° C.): 75%; % of Total A1PI Eluted by Fraction (Based on Absorbance at 280 nm), Flowthrough (VIFLVR point mutations, 4° C.): 0% |
| NNWLVR: point mutation of VIWLVR on Ala-Totda-Toyopearl (not fully specified (C-terminus)) | 13 | 4 | 83 | – |
| NSWLVR: point mutation of VIWLVR on Ala-Totda-Toyopearl (not fully specified (C-terminus)) | 43 | 5 | 52 | – |
| NWKRVR | – | – | – | Percent A1PI Eluted by Fraction Based on Absorbance at 280 nm, 1M NaCl (4° C.): 95%; Percent A1PI Eluted by Fraction Based on Absorbance at 280 nm, 2% Acetic Acid (4° C.): 5%; Percent A1PI Eluted by Fraction Based on Absorbance at 280 nm, Flowthrough (4° C.): 0%; Percent A1PI Eluted by Fraction, 1M NaCl (20° C.): 93%; Percent A1PI Eluted by Fraction, 2% Acetic Acid (20° C.): 7%; Percent A1PI Eluted by Fraction, Flowthrough (20° C.): 0% |
| RRKYLW | – | – | – | Percent A1PI Eluted by Fraction Based on Absorbance at 280 nm, 1M NaCl (4° C.): 92%; Percent A1PI Eluted by Fraction Based on Absorbance at 280 nm, 2% Acetic Acid (4° C.): 8%; Percent A1PI Eluted by Fraction Based on Absorbance at 280 nm, Flowthrough (4° C.): 0%; Percent A1PI Eluted by Fraction, 1M NaCl (20° C.): 82%; Percent A1PI Eluted by Fraction, 2% Acetic Acid (20° C.): 18%; Percent A1PI Eluted by Fraction, Flowthrough (20° C.): 0% |
| SDWLVR: point mutation of VIWLVR on Ala-Totda-Toyopearl (not fully specified (C-terminus)) | 1 | 1 | 98 | – |
| SHWLVR: point mutation of VIWLVR on Ala-Totda-Toyopearl (not fully specified (C-terminus)) | 87 | 13 | 0 | – |
| SNWLVR: point mutation of VIWLVR on Ala-Totda-Toyopearl (not fully specified (C-terminus)) | 95 | 5 | 0 | – |
| V A F L V R: point mutation of VIFLVR, position 2 (VAFLVR) | – | – | – | % of Total A1PI Eluted by Fraction (Based on Absorbance at 280 nm), 1M NaCl (VIFLVR point mutations, 4° C.): 55%; % of Total A1PI Eluted by Fraction (Based on Absorbance at 280 nm), 2% Acetic Acid (VIFLVR point mutations, 4° C.): 45%; % of Total A1PI Eluted by Fraction (Based on Absorbance at 280 nm), Flowthrough (VIFLVR point mutations, 4° C.): 0%; % of Total A1PI Eluted by Fraction (Based on Absorbance at 280 nm), 1M NaCl (VIFLVR point mutations, 20° C.): 8%; % of Total A1PI Eluted by Fraction (Based on Absorbance at 280 nm), 2% Acetic Acid (VIFLVR point mutations, 20° C.): 92%; % of Total A1PI Eluted by Fraction (Based on Absorbance at 280 nm), Flowthrough (VIFLVR point mutations, 20° C.): 0% |
| V H F L V R: point mutation of VIFLVR, position 2 (VHFLVR) | – | – | – | % of Total A1PI Eluted by Fraction (Based on Absorbance at 280 nm), 1M NaCl (VIFLVR point mutations, 4° C.): 35%; % of Total A1PI Eluted by Fraction (Based on Absorbance at 280 nm), 2% Acetic Acid (VIFLVR point mutations, 4° C.): 65%; % of Total A1PI Eluted by Fraction (Based on Absorbance at 280 nm), Flowthrough (VIFLVR point mutations, 4° C.): 0% |

— patent US5985836A, “Alpha-1 proteinase inhibitor binding peptides” (Bayer Corporation, priority 1998, dated 1999)
